These results are taken from patent US20120195879A1.

For one experiment, the target named is human Kv1.3 (human) (UniProt P22001). Briefly: cell-based or functional assay.
In another experiment the target is human Kv1.1 (human) (UniProt Q09470). Nature of the experiment: cell-based or functional assay.
Chain of human Kv1.1 (human) (Q09470 whole entry): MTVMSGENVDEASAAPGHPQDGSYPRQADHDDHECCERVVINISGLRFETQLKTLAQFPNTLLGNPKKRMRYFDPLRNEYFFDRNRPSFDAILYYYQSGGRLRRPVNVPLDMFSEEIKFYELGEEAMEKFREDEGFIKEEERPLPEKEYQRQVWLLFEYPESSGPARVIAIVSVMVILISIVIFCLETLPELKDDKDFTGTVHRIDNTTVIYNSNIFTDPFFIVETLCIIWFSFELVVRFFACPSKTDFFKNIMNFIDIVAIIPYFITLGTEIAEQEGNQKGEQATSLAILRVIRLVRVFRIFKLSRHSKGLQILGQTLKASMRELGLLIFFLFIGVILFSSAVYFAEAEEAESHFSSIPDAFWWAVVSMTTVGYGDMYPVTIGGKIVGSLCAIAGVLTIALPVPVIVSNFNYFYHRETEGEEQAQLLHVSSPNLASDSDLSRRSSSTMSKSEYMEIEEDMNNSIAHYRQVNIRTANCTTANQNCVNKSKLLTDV

Chain of human Kv1.3 (human) (P22001 whole entry): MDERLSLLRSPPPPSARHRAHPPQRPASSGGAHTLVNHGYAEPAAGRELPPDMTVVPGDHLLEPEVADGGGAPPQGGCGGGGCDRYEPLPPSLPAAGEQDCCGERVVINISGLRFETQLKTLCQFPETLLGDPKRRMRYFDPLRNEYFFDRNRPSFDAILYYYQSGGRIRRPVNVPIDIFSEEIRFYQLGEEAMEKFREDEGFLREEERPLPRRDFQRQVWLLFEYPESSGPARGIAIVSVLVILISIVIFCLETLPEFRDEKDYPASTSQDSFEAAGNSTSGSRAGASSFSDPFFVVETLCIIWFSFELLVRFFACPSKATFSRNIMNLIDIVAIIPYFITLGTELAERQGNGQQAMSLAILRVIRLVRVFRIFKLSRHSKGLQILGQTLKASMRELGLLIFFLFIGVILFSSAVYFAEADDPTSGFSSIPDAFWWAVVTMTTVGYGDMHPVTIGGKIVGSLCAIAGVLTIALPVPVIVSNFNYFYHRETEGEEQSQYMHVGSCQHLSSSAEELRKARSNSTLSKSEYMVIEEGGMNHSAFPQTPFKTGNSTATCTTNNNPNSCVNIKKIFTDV

In turn, “Monovalent Fc/Fc-L10-ShK[2-35] heterodimer (Fc fusion)” displayed a Potency Relative to ShK (WB, IL2) in the experiment with human Kv1.3 (human) of 32.1.

Take 20 kDa-PEG-ShK (peptide): in the experiment with human Kv1.3 (human), the Kv1.1/Kv1.3 Selectivity Ratio by PX turned out to be 5.44; the Kv1.3 (PX) IC50 stood at 0.299 nM; the Potency Relative to ShK (WB, IL2) came to 5.67; the WB (IFNg) IC50 was 0.84 nM. In addition, the WB (IL-2) IC50 in the experiment with human Kv1.3 (human) came to 0.38 nM. The substance further showed a Kv1.1 (PX) IC50 with human Kv1.1 (human) of 1.63 nM.
